Test results published in patent US20240123058A1 (XIAMEN UNIVERSITY, published 2024).

T1: wild-type full-length EBV gB protein expressed on cells (EBV M81 strain, UniProt P0C762 22-857)
T1 construct: also called gB protein expressed by cells; natural gB protein
T1 chain: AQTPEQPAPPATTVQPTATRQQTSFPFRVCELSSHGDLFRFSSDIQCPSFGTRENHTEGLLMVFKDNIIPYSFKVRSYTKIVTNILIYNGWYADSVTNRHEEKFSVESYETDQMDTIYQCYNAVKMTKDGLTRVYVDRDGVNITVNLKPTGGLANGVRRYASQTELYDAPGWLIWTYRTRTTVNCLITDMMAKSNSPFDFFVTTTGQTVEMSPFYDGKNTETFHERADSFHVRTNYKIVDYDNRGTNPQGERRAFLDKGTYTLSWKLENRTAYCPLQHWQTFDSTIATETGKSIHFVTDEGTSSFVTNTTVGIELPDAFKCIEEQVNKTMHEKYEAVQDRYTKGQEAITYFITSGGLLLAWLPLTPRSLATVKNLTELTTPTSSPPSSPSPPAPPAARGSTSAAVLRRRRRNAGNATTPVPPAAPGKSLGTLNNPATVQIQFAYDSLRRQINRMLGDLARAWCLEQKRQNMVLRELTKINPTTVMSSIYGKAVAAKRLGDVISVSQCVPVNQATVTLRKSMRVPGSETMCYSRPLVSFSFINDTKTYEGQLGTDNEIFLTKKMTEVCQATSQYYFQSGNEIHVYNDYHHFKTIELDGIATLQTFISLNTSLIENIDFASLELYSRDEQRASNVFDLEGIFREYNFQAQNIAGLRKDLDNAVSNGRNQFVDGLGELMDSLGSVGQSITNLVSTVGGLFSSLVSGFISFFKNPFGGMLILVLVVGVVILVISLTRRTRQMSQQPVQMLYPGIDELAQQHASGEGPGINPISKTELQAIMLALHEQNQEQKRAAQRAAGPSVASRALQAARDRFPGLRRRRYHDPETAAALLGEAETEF

T2: gB-528~616aa
T2 construct: as f3
T2 HBc149/mut carrier with inserted gB segment: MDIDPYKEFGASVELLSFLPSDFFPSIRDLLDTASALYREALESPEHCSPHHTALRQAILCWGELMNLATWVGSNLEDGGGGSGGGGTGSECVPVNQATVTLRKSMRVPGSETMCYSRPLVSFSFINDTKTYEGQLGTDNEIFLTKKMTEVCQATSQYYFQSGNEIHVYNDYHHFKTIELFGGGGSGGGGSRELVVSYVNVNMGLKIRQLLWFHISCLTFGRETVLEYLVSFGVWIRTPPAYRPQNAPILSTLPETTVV

T3: EBV gB protein ectodomain (24-683 aa) of the substituted M81 strain gB protein, C-terminal 6×His tag (EBV M81 strain, UniProt P0C762 24-683)
T3 construct: Expressed in 293F cells; also called EBV gB ectodomain
T3 chain: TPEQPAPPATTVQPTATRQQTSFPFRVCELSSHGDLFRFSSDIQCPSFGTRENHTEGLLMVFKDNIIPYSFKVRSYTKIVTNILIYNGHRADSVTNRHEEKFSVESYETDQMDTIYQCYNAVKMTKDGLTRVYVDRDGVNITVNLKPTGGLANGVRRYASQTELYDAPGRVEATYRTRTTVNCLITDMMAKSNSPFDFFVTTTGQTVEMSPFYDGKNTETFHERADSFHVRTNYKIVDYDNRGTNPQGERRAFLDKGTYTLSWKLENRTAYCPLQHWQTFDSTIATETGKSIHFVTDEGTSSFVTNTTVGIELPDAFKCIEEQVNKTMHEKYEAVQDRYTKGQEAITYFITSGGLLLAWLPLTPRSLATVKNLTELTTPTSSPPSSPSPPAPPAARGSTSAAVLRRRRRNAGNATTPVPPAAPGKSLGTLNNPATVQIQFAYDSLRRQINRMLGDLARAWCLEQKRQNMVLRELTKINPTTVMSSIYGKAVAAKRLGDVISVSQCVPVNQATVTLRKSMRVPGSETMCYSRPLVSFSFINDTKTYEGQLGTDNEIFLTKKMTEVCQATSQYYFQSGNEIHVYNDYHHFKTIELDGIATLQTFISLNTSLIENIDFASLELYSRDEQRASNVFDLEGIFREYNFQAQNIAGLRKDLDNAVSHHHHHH

T4: HBc149 protein chimerized with gB-331˜367aa epitope
T4 construct: also called Recombination protein gB aa331-367 + HBc149/mut; HBc149 chimeric protein
T4 chain: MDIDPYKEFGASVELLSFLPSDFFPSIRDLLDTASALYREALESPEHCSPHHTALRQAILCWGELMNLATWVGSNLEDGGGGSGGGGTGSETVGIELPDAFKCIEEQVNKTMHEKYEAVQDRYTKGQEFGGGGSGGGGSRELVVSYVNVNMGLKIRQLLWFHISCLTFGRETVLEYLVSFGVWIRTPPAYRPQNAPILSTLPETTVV

T5: gB-295~390aa
T5 construct: as f3
T5 HBc149/mut carrier with inserted gB segment: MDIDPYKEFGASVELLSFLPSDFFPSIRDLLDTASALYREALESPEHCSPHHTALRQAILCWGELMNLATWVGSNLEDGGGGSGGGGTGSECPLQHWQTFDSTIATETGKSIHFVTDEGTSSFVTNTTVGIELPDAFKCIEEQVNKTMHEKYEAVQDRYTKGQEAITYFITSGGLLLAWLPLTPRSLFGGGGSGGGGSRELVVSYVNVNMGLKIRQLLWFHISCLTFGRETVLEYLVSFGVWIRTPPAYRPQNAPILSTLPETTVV


Legend:
[1] = target: T1, wild-type full-length EBV gB protein …; assay: immunofluorescence on MDCK cells transfected with full-length wild-type gB
[2] = target: gB protein on EBV virions used in the neutralization models (Epstein-Barr virus); assay: cell-based or functional assay
[3] = target: T2, gB-528~616aa; assay: Western blot of gB segments displayed on HBc149, reduced and heated
[4] = target: T3, EBV gB protein ectodomain (24-683 aa) …; assay: SPR, Biacore 8K, antibody captured on Protein A chip, gB as analyte
[5] = target: T4, HBc149 protein chimerized with …; assay: indirect ELISA on the coated HBc149 protein chimerized with gB-331~367aa, antibody titrated
[6] = target: T3, EBV gB protein ectodomain (24-683 aa) …; assay: indirect ELISA, coated gB ectodomain
[7] = target: T3, EBV gB protein ectodomain (24-683 aa) …; assay: SPR (Biacore 8K): antibody captured on a Protein A chip, EBV-gB as analyte at 1.5625-200 nM
[8] = target: T5, gB-295~390aa; assay: Western blot of gB segments displayed on HBc149, reduced and heated
[9] = target: T3, EBV gB protein ectodomain (24-683 aa) …; assay: indirect ELISA on coated wild-type gB ectodomain, 3A5 titrated [right panel]

Binder	binding result [1]	IC50 on the B cell infection model [2]	IC50 on the epithelial cell infection model [2]	binding result [3]	Kd [4]	binding result [5]	EC50 [6]	koff [7]	kon [7]	binding result [8]	EC50 (read off the curve) [9]
rabbit monoclonal antibody 3A3 (antibody, V domains shown, Recombinant rabbit monoclonal antibody expressed in 293F cells; also called 3A3 antibody) VH: QSVKESGGRLVTPGTPLTLTCTVSGFSLSSYAMSWVRQAPGKGLEYIGVIYASGSTYYASWAKGRFTISRTATTVDLKITSPTTEDTATYFCGRGVSTNMWGPGTLVTVSS VL: DLVMTQTPSSVSAAVGGTVTIKCQASQSLGGGLAWYQQKPGQRPKLLIYSASTLESGVPSRFRGSGSGTEFTLTISDLECADAATYYCQSAYGPTSNGLFNAFGGGTKVVIK	binds	2.97 µg/mL	0.07 µg/mL	no binding (tested: 1 µg/mL)	0.863 nM	binds	0.007 µg/mL	0.000162 s⁻¹	188000 M⁻¹ s⁻¹		
rabbit monoclonal antibody 3A5 (antibody, V domains shown, Recombinant rabbit monoclonal antibody expressed in 293F cells; also called 3A5 antibody) VH: QSVKESGGRLVTPGTPLTLTCTVSGFSLSSYEMGWVRQAPGEGLEWIGTISTGGSSYYASWAKGRFTISRTSTTVDLKMTSLTTADTATYFCARGYGGYGIGAGYFNIWGPGTLVTVSS VL: ALVMTQTPSSVSEPVGGTVTIKCQASQSISSYLAWYQRKPGQRPKLLIYGTSTLASGVPSRFIGSGSGTDYTLTISDLECDDAATYYCQQGFSTSNVYNSFGGGTKVDIK	binds	4.9 µg/mL	0.31 µg/mL		0.411 nM		0.0052 µg/mL	0.000266 s⁻¹	648000 M⁻¹ s⁻¹	no binding (tested: 1 µg/mL)	~0.005 µg/mL
